Test results taken from ChEMBL document CHEMBL1156444, “Structure-based design, synthesis, evaluation, and crystal structures of transition state analogue inhibitors of inosine monophosphate cyclohydrolase” (J Biol Chem, 2007).

Substrate: NC(=O)c1ncn([C@@H]2O[C@H](COP(=O)(O)O)[C@@H](O)[C@H]2O)c1N
Conditions: Homo sapiens
Description: Activity of human wild-type ATIC assessed as IMPCH activity

B1: Bifunctional purine biosynthesis protein ATIC (Homo sapiens), P31939 (protein)
chain: MAPGQLALFSVSDKTGLVEFARNLTALGLNLVASGGTAKALRDAGLAVRDVSELTGFPEMLGGRVKTLHPAVHAGILARNIPEDNADMARLDFNLIRVVACNLYPFVKTVASPGVTVEEAVEQIDIGGVTLLRAAAKNHARVTVVCEPEDYVVVSTEMQSSESKDTSLETRRQLALKAFTHTAQYDEAISDYFRKQYSKGVSQMPLRYGMNPHQTPAQLYTLQPKLPITVLNGAPGFINLCDALNAWQLVKELKEALGIPAAASFKHVSPAGAAVGIPLSEDEAKVCMVYDLYKTLTPISAAYARARGADRMSSFGDFVALSDVCDVPTAKIISREVSDGIIAPGYEEEALTILSKKKNGNYCVLQMDQSYKPDENEVRTLFGLHLSQKRNNGVVDKSLFSNVVTKNKDLPESALRDLIVATIAVKYTQSNSVCYAKNGQVIGIGAGQQSRIHCTRLAGDKANYWWLRHHPQVLSMKFKTGVKRAEISNAIDQYVTGTIGEDEDLIKWKALFEEVPELLTEAEKKEWVEKLTEVSISSDAFFPFRDNVDRAKRSGVAYIAAPSGSAADKVVIEACDELGIILAHTNLRLFHH
  Km: 1.9 µM
